Reference: article PMC8599947

Assays:
CST g3.1 [1] = molecular target: T1, CST g3.1 (human, UniProt Q2NKJ3;Q9H668;Q86WV5 1-1217;1-368;1-123, K1167E;CTC1:K1164E); assay: EMSA
CST g2.1 [2] = molecular target: T2, CST g2.1 (human, UniProt Q2NKJ3;Q9H668;Q86WV5 1-1217;1-368;1-123, N981D;Y983A;CTC1:R978E); assay: EMSA
CST g1.1 [3] = molecular target: T3, CST g1.1 (human, UniProt Q2NKJ3;Q9H668;Q86WV5 1-1217;1-368;1-123, E951K;CTC1:Y949A); assay: EMSA
[4] = molecular target: CST g4.1 (negative control mutant) (human, UniProt Q2NKJ3;Q9H668;Q86WV5 1-1217;1-368;1-123, R744E;CTC1:K743E); assay: fluorescence anisotropy
CST g1.1 [5] = molecular target: T3, CST g1.1; assay: fluorescence anisotropy
CST g3.1 [6] = molecular target: T1, CST g3.1; assay: fluorescence anisotropy
CST g2.1 [7] = molecular target: T2, CST g2.1; assay: fluorescence anisotropy

T3 sequence (Q2NKJ3 whole entry E951K, chain 1 of 3): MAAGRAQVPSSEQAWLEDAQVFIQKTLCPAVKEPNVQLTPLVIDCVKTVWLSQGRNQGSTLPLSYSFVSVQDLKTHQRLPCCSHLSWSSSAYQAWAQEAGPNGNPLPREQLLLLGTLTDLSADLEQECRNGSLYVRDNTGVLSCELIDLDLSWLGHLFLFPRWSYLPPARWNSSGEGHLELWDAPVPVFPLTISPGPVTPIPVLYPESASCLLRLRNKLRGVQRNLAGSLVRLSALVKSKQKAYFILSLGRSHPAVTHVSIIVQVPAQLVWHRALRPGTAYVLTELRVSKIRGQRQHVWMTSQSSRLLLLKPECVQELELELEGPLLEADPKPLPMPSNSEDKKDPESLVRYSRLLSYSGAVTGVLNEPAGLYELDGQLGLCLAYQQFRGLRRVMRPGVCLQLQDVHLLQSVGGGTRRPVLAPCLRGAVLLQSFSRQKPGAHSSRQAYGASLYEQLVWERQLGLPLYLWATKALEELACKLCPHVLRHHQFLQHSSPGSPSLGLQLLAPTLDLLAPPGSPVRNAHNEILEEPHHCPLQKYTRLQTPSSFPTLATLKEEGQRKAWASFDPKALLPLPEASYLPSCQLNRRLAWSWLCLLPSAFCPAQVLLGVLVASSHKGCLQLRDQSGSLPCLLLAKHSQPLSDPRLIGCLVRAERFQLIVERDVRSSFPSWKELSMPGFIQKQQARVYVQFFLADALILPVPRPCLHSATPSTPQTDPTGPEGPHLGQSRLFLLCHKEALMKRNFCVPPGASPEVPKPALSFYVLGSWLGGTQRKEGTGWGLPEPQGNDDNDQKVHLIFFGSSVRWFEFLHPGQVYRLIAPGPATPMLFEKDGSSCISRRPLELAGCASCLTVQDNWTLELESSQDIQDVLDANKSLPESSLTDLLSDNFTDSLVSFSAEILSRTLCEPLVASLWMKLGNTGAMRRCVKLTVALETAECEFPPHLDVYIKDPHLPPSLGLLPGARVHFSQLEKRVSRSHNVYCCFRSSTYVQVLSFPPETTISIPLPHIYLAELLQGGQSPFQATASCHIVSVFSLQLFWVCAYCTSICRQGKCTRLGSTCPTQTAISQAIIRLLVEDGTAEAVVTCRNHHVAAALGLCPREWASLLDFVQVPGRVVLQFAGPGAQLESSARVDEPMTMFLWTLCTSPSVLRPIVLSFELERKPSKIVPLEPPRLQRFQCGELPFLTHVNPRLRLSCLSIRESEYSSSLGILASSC
T3 sequence (Q9H668 whole entry, stated change not applied, chain 2 of 3): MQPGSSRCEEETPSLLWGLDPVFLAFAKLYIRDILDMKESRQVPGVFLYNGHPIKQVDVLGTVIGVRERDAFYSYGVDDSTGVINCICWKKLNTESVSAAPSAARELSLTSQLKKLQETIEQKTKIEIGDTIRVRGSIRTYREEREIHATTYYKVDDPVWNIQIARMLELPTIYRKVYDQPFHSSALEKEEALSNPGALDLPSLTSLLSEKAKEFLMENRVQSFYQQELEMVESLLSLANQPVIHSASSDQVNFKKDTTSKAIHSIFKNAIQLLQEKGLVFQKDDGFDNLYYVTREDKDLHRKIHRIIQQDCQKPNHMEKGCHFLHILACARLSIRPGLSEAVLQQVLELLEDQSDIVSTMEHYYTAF
T3 sequence (Q86WV5 whole entry, stated change not applied, chain 3 of 3): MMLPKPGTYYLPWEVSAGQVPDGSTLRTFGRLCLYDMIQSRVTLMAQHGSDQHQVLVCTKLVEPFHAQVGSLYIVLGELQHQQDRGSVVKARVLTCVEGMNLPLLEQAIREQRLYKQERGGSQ
T2 sequence (Q2NKJ3 whole entry N981D/Y983A, chain 1 of 3): as the sequence (Q2NKJ3 whole entry E951K, chain 1 of 3) above, with K951E, N981D, Y983A counted along it
T2 sequence (Q9H668 whole entry, stated change not applied, chain 2 of 3): as the sequence (Q9H668 whole entry, stated change not applied, chain 2 of 3) above
T2 sequence (Q86WV5 whole entry, stated change not applied, chain 3 of 3): as the sequence (Q86WV5 whole entry, stated change not applied, chain 3 of 3) above
T1 sequence (Q2NKJ3 whole entry K1167E, chain 1 of 3): as the sequence (Q2NKJ3 whole entry E951K, chain 1 of 3) above, with K951E, K1167E counted along it
T1 sequence (Q9H668 whole entry, stated change not applied, chain 2 of 3): as the sequence (Q9H668 whole entry, stated change not applied, chain 2 of 3) above
T1 sequence (Q86WV5 whole entry, stated change not applied, chain 3 of 3): as the sequence (Q86WV5 whole entry, stated change not applied, chain 3 of 3) above
CST g4.1 (negative control mutant), sequence (Q2NKJ3 whole entry R744E, chain 1 of 3): as the sequence (Q2NKJ3 whole entry E951K, chain 1 of 3) above, with R744E, K951E counted along it
CST g4.1 (negative control mutant), sequence (Q9H668 whole entry, stated change not applied, chain 2 of 3): as the sequence (Q9H668 whole entry, stated change not applied, chain 2 of 3) above
CST g4.1 (negative control mutant), sequence (Q86WV5 whole entry, stated change not applied, chain 3 of 3): as the sequence (Q86WV5 whole entry, stated change not applied, chain 3 of 3) above

Row | Binder | Kd (CST g3.1 [1]) [nM] | Kd (CST g2.1 [2]) [nM] | Kd (CST g1.1 [3]) [nM] | Kd [4] [nM] | Kd (CST g1.1 [5]) [nM] | Kd (CST g3.1 [6]) [nM] | Kd (CST g2.1 [7]) [nM]
1 | TTAGGGTTAGGGTTAGGG (ssDNA) [3xTEL (EMSA)] | 97 ± 27 | 210 ± 106 | 133 ± 73 |  |  |  | 
2 | TTAGGGTTAGGGTTAGGG (ssDNA) [3xTEL (FP)] |  |  |  | 2 ± 0.16 | ~520 | ~420 | ~800
